Experimental data taken from patent publication US20210324051A1 (published 2021).

T1: EBOV Mayinga strain cleaved GP ectodomain (Ebola virus, Mayinga strain, UniProt Q05320 33-650)
T1 chain: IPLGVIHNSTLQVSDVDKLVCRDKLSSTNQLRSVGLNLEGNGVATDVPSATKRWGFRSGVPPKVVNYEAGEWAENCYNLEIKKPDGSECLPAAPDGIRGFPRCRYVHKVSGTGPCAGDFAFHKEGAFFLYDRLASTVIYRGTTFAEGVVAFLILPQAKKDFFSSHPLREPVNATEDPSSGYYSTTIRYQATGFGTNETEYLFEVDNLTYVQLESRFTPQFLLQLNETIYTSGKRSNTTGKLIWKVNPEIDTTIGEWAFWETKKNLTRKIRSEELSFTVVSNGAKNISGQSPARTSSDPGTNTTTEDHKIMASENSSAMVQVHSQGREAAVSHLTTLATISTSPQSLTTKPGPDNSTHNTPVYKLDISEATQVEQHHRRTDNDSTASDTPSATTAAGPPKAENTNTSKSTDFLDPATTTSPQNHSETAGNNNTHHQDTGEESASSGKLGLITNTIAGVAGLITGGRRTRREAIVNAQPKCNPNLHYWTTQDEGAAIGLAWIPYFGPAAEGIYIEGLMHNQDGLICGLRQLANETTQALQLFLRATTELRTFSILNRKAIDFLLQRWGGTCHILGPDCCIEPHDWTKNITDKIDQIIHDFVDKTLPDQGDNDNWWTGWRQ

T2: Ravn strain cleaved MARV GP ectodomain (Marburg virus, Ravn strain, UniProt Q1PDC7 19-648)
T2 chain: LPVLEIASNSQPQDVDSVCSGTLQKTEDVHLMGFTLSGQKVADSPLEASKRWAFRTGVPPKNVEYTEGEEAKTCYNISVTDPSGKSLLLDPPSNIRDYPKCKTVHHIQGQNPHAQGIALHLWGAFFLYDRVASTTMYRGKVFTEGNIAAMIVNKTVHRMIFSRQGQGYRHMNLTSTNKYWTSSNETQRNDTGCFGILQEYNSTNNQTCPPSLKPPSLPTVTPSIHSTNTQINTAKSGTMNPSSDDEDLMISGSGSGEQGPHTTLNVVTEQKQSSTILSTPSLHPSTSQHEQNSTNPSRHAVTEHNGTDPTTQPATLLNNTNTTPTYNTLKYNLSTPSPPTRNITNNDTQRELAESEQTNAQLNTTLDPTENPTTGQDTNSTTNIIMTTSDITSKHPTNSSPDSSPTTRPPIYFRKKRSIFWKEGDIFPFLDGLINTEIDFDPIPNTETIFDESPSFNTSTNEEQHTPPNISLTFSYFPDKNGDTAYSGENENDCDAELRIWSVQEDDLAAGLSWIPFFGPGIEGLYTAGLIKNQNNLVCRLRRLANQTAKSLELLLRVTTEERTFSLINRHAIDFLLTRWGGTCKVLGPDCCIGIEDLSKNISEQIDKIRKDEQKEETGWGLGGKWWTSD

T3: Angola strain MARV GP ectodomain containing the mucin-like domain (Marburg virus, Angola strain, UniProt Q1PD50 19-648)
T3 chain: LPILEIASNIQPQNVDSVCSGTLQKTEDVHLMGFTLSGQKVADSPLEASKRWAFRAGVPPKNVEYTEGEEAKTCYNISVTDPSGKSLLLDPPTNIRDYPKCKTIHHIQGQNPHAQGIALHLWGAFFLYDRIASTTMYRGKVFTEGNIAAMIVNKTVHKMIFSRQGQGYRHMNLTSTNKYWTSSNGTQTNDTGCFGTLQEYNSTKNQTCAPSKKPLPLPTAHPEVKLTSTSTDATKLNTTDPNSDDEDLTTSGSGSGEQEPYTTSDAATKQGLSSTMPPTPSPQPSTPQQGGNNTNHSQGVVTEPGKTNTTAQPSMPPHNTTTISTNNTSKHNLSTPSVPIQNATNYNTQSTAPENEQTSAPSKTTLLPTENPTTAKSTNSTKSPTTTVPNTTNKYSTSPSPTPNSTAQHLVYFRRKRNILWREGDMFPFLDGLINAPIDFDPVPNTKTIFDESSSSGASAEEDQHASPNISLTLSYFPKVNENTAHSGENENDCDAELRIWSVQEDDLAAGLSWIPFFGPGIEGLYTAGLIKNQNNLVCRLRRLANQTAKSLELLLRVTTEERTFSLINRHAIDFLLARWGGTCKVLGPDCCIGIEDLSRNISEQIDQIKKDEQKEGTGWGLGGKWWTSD

T4: EBOV Mayinga strain GP ectodomain containing the glycan cap and mucin-like domain (Ebola virus, Mayinga strain, UniProt Q05320 33-650)
T4 chain: T1 chain

B1: MR144 (antibody, V domains shown)
V domain 1: QVQLQESGPGLVKPSETLSLTCTVSGDSISRYYWSWIRQPPGKGLEWIGYLYYSGSTDYNPSLKSRVTISVDTSKNQFSLNLTSVTAADTAVYYCARGSSRGIGVVSHWFDPWGQGT
V domain 2: SYVLTQPPSVSVAPGQTARITCGGSNMGYKSVQWYQQRPGQAPVLVVYDDTDRPSGIPERFSGSNSGATATLTISSVEAGDEADYYCQVWDSSSDHHVVFGGGTQVTVL
B2: MR208 (antibody, V domains shown)
VH: QVQLQESGPGLVKPSETLSLTCSVSGDSVSSGDYYWSWLRQPPGKGLEWIGYIYYSGATNYNPSLKSRVTISLDTSKNQFSLKLTSVTAADTAVYYCARERAGFLEWLFFEDWGQGT
VL: DIQMTQSPSSLSASVGDRVTIFCRASQSIGTYLSWYQQKPGKAPKVLIYATSNLQSGVPSRFSGSGSGTEFTLTISSLQPEDFATYYCQQSRTFGQGTKVDMK
B3: MR209 (antibody)
chain 1: QLQLQESGPGLVKPSETLSLTCTVAGGPITSNNYYWGWIRQSPGKGLEWIGSVYYSGNTYYNPSIKTRVTMSVDTSKSQFSLKLNSVTAADTAVYYCARQFRLLQFVEWLHHFDSWGPGN
chain 2: SYVLTQPPSVSVAPGQTARIPCGGNDIANKRVHWYQQKPGQAPMLVVYDDGDRPSGIPERFSGSNSGNTATLTISRVEAGDEADYYCQVWENSSDLCVVFGGGTKLTVL
B4: MR229 (antibody)
chain 1: EVQLVESGGGLVKPGGSLRISCVTSGFTFGDYAMSWFRQAPGKGLEWVGFIRNKGYGGTIDYAASVKGRFTISRDDSKSIAYLQMNSLKTEDTAVYYCTGVRLHYDFWSGYDDDSFHIWGQGTM
chain 2: DGVMTQSPLSLPVTPGQPASISCRSTQSLVHGDGDTYLYWFQQRPGQSPRRLIYKVSNRDSGVPDRFSGSGSGTDFTLKISRVEAEDVGVYYCMQSTHWPPTFGQ
B5: MR72 human monoclonal antibody (antibody, V domains shown)
VH: QLQLQESGPGLVKPSETLSLTCTVSGDSINNTNYYWAWIRQPPGKGLEYIGSIYYSGSTYYNPSLKSRVTMSVDASKNQFSLRLSSVTAADTAVYYCATHPTLGAFVLLWFGANFDHWGQGTLVTVSS
VL: QAVVTQPPSVSGAPGQRVTISCTGSSSNIGANYDVHWYQQLPGTAPKLLMYSNTNRPSGVPDRFSGSKSGTSASLAITGLQAEDEADYYCQSYDNSLNSWVFGGGTQLTVL
B6: MR241 (antibody, V domains shown)
VH: QVQLQESGPGLVKPSETLSLTCTVSGASISGNFWSWIRQPPGKGLEYIGYMSDIGTTNYSPSLKSRVTISVDTSKNQFSLNLTSVTAADAAVYYCARLVAVPGFFYHYYMDVWGEGTLVTVSS
VL: DIVMTQSPSSVSASVGDRVTITCRASQGISGWLAWYQQKPGKAPKLLIYATSTLQSGVPSRFSGSESGTAFTLTISSLQPEDFATYYCQQANSFPLTFGGGTKVEIK
B7: MR82 (antibody, V domains shown)
VH: QVQLVQSGAEVKKPGASVKVSCKASGHTFTTYAIHWVRQAPGQGLEWMGWINPDNDNTEYSQKFQGRVTITRDTSASTAYMELSSLISEDTAVFYCASASYTFWSGYYSGLDYWGQGTLVTVSS
VL: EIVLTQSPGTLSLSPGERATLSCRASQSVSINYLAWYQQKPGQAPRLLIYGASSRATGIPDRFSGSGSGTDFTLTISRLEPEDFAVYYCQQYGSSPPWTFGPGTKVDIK
B8: MR111 human monoclonal antibody (antibody, V domains shown)
V domain 1: QVQLQESGPGLVKPSETLSLTCTVSGDSINNYYWSWIRQPPGKGLEWIGYIYYSNTNYNPSLKSRVTISVDTSKNQFSLRLSSVTAADTAVYYCARSPLFWFGEFFSSPDHFDFWGQGTL
V domain 2: QSALTQPASVSGSPGQSITISCTGTSSDVGSYDLVSWYQQHPGKAPKLMLYEGTKRPSGVSNRFSGSKSGNTASLTISGLQAEDEADYYCCSYAGGSTLVFGGGTQVTVL
B9: MR191 human monoclonal antibody (antibody, V domains shown)
VH: QLQLQESGPGLVKPSETLSLSCTVSGVSISDNSYYWGWIRQPPGKGLEWIGTISYSGNTYYNPSLKSRVSISGDTSKHQLSLKVSSVTAADTAVYYCARQRIVSGFVEWLSKFDYWGQGTLVTVSS
VL: QSVLTQPPSVSGAPGQRVTISCTGSSSNIGAGFDVHWYQQLPGTAPKLLIYDNNNRPSGVPDRFSGSKSGTSASLAITGLQAEDEADYYCQSYDTSLSGPVVFGGGTKLTVL
B10: MR65 (antibody, V domains shown)
VH: EVQLLESGGGLVQPGGSLRLSCAASGFTFSSYAMSWVRQAPGQGLEWVSGISATGGNTYYPDSVKGRFTISRDNSKNTLYLQMNSLRAEDTAVYYCARPLQFLTWFDPWGQGTLVTVSS
VL: EIVLTQSPATLSLSPGERATLSCRASQSVNNFLAWYQQKPGQPPRLLIYDATNRATGIPARFSGSGSGTDFTLTISSLEPEDFAVYHCQHRSNWPSITFGQGTRLEIK
B11: MR232 (antibody, V domains shown)
VH: QLQLQESGPGLVKPSETLSLTCAVSGGSISSSGYCWGWIRQPPGKGLEWIASICSSGTTYFNSSLKSRVSISIDTSRPQFLLNLRSLTAADTAVYYCARQRMELHFLEWLFPFDSWGQGTLVTVSS
VL: DIVMTQSPATLSVSPGERATLSCRASQSVSSNLAWYQQKPGQAPRLLISGASTRATGIPARFSGSGSGTEFTLTISSLQSEDFAVYYCQQYINWPCSFGQGTKVDIK

These binders were tested against Angola strain MARV GP ectodomain lacking residues 257-425 of the mucin-like domain (Marburg virus, Angola strain, UniProt Q1PD50 19-648) (assay: ELISA).
Work on B1 yielded an EC50 of 8 µg/mL. Work on B2 yielded an EC50 of 7.3 µg/mL. B3 gave an EC50 of 5.4 µg/mL. In the case of B4, the EC50 is reported as 2.9 µg/mL. B5 was tested, and the EC50 was 4.7 µg/mL. B6 showed an EC50 of 4 µg/mL. B7 was tested, and the EC50 was 1.5 µg/mL. Binder B8 has an EC50 of 4.3 µg/mL. Binder B9 has an EC50 of 5.1 µg/mL. In the case of B10, the EC50 is reported as 7.5 µg/mL. B11 gave an EC50 of 1.3 µg/mL.

Biological target: T1, EBOV Mayinga strain cleaved GP …
Assay: ELISA
In the case of B1, the EC50 is reported as over 1000 µg/mL. Binder B2 has an EC50 of over 1000 µg/mL. B3 showed an EC50 of over 1000 µg/mL. B4 was tested, and the EC50 was over 1000 µg/mL. Work on B5 yielded an EC50 of under 0.1 µg/mL. For B6, the EC50 was over 1000 µg/mL. B7 was tested, and the EC50 was over 1000 µg/mL. Work on B8 yielded an EC50 of 21.5 µg/mL. B9 was tested, and the EC50 was under 0.1 µg/mL. B10 showed an EC50 of over 1000 µg/mL. With B11 the EC50 was over 1000 µg/mL.

Biological target: T2, Ravn strain cleaved MARV GP ectodomain
Assay: ELISA
For B1, the EC50 was 3.3 µg/mL. In the case of B2, the EC50 is reported as 2.8 µg/mL. With B3 the EC50 was 2 µg/mL. Work on B4 yielded an EC50 of 1.2 µg/mL. Binder B5 has an EC50 of 0.8 µg/mL. In the case of B6, the EC50 is reported as 1.2 µg/mL. B7 showed an EC50 of 0.5 µg/mL. B8 was tested, and the EC50 was 1.5 µg/mL. B9 gave an EC50 of 1.4 µg/mL. In the case of B10, the EC50 is reported as 5 µg/mL. B11 was tested, and the EC50 was 0.5 µg/mL.

Biological target: T3, Angola strain MARV GP ectodomain …
Assay: ELISA
B1 showed an EC50 of 8.1 µg/mL. With B2 the EC50 was 5.6 µg/mL. B3 was tested, and the EC50 was 4 µg/mL. With B4 the EC50 was 1.8 µg/mL. B5 gave an EC50 of 3 µg/mL. For B6, the EC50 was 2.2 µg/mL. Binder B7 has an EC50 of 1 µg/mL. B8 was tested, and the EC50 was 2.5 µg/mL. B9 showed an EC50 of 2.5 µg/mL. In the case of B10, the EC50 is reported as 8.3 µg/mL. Binder B11 has an EC50 of 2 µg/mL.

Biological target: T4, EBOV Mayinga strain GP ectodomain …
Assay: ELISA
In the case of B1, the EC50 is reported as over 1000 µg/mL. For B2, the EC50 was over 1000 µg/mL. In the case of B3, the EC50 is reported as over 1000 µg/mL. In the case of B4, the EC50 is reported as over 1000 µg/mL. For B5, the EC50 was 6.1 µg/mL. With B6 the EC50 was over 1000 µg/mL. With B7 the EC50 was over 1000 µg/mL. In the case of B8, the EC50 is reported as over 1000 µg/mL. Work on B9 yielded an EC50 of over 1000 µg/mL. B10 gave an EC50 of over 1000 µg/mL. B11 gave an EC50 of over 1000 µg/mL.

The binders below were run against EBOV Mayinga strain GP ectodomain lacking residues 314-462 of the mucin-like domain (Ebola virus, Mayinga strain, UniProt Q05320 33-650) (assay: ELISA).
Binder B1 has an EC50 of over 1000 µg/mL. In the case of B2, the EC50 is reported as over 1000 µg/mL. In the case of B3, the EC50 is reported as over 1000 µg/mL. B4 showed an EC50 of over 1000 µg/mL. Binder B5 has an EC50 of 2.1 µg/mL. B6 gave an EC50 of over 1000 µg/mL. For B7, the EC50 was over 1000 µg/mL. For B8, the EC50 was over 1000 µg/mL. For B9, the EC50 was over 1000 µg/mL. B10 was tested, and the EC50 was over 1000 µg/mL. Binder B11 has an EC50 of over 1000 µg/mL.
